Measurements published in publication PMC6733756.
Where two headings read alike, the source gives them in different places.

Assays:
[1] = biological target: human XCR1 (human) (UniProt P46094); experiment: radioligand binding
[2] = biological target: human XCR1 (human) (UniProt P46094)
[3] = biological target: human XCR1 (human) (UniProt P46094); remark: listed apart in the source
[4] = biological target: human XCR1 (human) (UniProt P46094); experiment: radioligand binding; remark: listed apart in the source

calcium flux in XCR1-expressing HEK293 cells, EC50 [2] [nM]	EC50 [1] [nM]	Molecule	also measured
> 268		XCL1 +Gly^N-term (from UniProt P47992 22-114) (ligand)	fold decrease in affinity against XCL1 CC3 [1]: > 100 fold
	< 1	XCL1 CC3 S6A (ligand) VGSEVADKRTCVSLTTQRLPCSRIKTYTITEGSLRAVIFITKRGLKVCADPQATWVRDCVRSMDRKSNTRNNMIQTKPTGTQQSTNTAVTLTG	
	< 1	XCL1 CC3 R9A (ligand) VGSEVSDKATCVSLTTQRLPCSRIKTYTITEGSLRAVIFITKRGLKVCADPQATWVRDCVRSMDRKSNTRNNMIQTKPTGTQQSTNTAVTLTG	
> 268		XCL1 CC3 D7A (ligand) VGSEVSAKRTCVSLTTQRLPCSRIKTYTITEGSLRAVIFITKRGLKVCADPQATWVRDCVRSMDRKSNTRNNMIQTKPTGTQQSTNTAVTLTG	EC50 [4]: < 1 nM
> 268		XCL1 CC3 S3A (ligand) VGAEVSDKRTCVSLTTQRLPCSRIKTYTITEGSLRAVIFITKRGLKVCADPQATWVRDCVRSMDRKSNTRNNMIQTKPTGTQQSTNTAVTLTG	

Second part, the molecule before the results:

Molecule	calcium flux in XCR1-expressing HEK293 cells, EC50 [2] [nM]	EC50 [1] [nM]	also measured
XCL1 ΔVal^1 (from UniProt P47992 22-114) (ligand)			fold decrease in affinity against XCL1 CC3 [1]: > 100 fold
XCL1 CC3 (ligand) VGSEVSDKRTCVSLTTQRLPCSRIKTYTITEGSLRAVIFITKRGLKVCADPQATWVRDCVRSMDRKSNTRNNMIQTKPTGTQQSTNTAVTLTG		1	^3H-IP3 accumulation in COS-7 cells transfected with XCR1 and Gqi4myr, EC50 [3]: 14.1 nM
XCL1 CC3 K8A (ligand) VGSEVSDARTCVSLTTQRLPCSRIKTYTITEGSLRAVIFITKRGLKVCADPQATWVRDCVRSMDRKSNTRNNMIQTKPTGTQQSTNTAVTLTG	> 268	5.2	EC50 [4]: < 1 nM
XCL1 CC3 E4A (ligand) VGSAVSDKRTCVSLTTQRLPCSRIKTYTITEGSLRAVIFITKRGLKVCADPQATWVRDCVRSMDRKSNTRNNMIQTKPTGTQQSTNTAVTLTG			fold decrease in affinity against XCL1 CC3 [1]: > 100 fold
XCL1 CC3 V5A (ligand) VGSEASDKRTCVSLTTQRLPCSRIKTYTITEGSLRAVIFITKRGLKVCADPQATWVRDCVRSMDRKSNTRNNMIQTKPTGTQQSTNTAVTLTG		8	
XCL1 CC3 G2A (ligand) VASEVSDKRTCVSLTTQRLPCSRIKTYTITEGSLRAVIFITKRGLKVCADPQATWVRDCVRSMDRKSNTRNNMIQTKPTGTQQSTNTAVTLTG	> 268		fold decrease in affinity against XCL1 CC3 [1]: > 100 fold
XCL1 CC3 V1A (ligand) AGSEVSDKRTCVSLTTQRLPCSRIKTYTITEGSLRAVIFITKRGLKVCADPQATWVRDCVRSMDRKSNTRNNMIQTKPTGTQQSTNTAVTLTG	> 268		
XCL1 CC3 T10A (ligand) VGSEVSDKRACVSLTTQRLPCSRIKTYTITEGSLRAVIFITKRGLKVCADPQATWVRDCVRSMDRKSNTRNNMIQTKPTGTQQSTNTAVTLTG			EC50 [4]: < 1 nM
XCL1 WT (ligand) VGSEVSDKRTCVSLTTQRLPVSRIKTYTITEGSLRAVIFITKRGLKVCADPQATWVRDVVRSMDRKSNTRNNMIQTKPTGTQQSTNTAVTLTG		7.7	^3H-IP3 accumulation in COS-7 cells transfected with XCR1 and Gqi4myr, EC50 [3]: 17.6 nM
